# Measured values reported in patent US20210371520A1 (AGILENT TECHNOLOGIES, published 2021).
# T1: human LAG-3 (Lymphocyte-Activation Gene 3) protein (human, UniProt P18627 23-525)
# T1 construct: whole, on cells; Endogenous LAG-3 in normal and tumour tissue sections (IHC), not a recombinant protein; also called CD223
# T1 sequence (looked up): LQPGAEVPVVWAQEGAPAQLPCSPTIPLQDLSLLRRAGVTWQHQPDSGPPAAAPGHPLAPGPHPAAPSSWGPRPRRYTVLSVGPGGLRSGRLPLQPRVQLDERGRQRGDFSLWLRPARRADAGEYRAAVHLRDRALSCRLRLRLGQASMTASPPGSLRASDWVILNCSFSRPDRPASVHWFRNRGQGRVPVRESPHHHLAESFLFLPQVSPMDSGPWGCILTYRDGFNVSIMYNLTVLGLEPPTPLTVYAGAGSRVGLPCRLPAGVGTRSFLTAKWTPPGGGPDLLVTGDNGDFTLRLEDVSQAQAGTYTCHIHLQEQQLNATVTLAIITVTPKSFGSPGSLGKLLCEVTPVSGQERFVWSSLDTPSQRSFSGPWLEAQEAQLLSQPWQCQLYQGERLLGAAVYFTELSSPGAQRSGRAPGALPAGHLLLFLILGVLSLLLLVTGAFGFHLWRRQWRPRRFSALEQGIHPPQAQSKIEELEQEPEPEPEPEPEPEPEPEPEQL
# Molecular target: T1, human LAG-3 (Lymphocyte-Activation Gene …)
# Experiment: double IHC staining on normal tonsil
# Source text: FIG. 9 illustrates tumor tissue samples of Lung Squamous cell Carcinoma (SQC) (FIG. 10) and kidney renal cell carcinoma (RCC) (FIG. 11); the double IHC staining method follows the protocol of Petersen, et al. 2018 [18] using the EnVision FLEX+™ system in a sequential manner, where the exemplary LAG-3 antibody, clone 12H8 (HRP DAB chromagen) constitutes the first layer followed by a sulfuric acid block step and adding an extra EnVision FLEX+™ staining layer on top with PD1 antibody, clone NAT105 (magenta chromogen)); and FIG. 9 illustrates that LAG-3 is co-localized with the PD1 T cell marker in a subpopulation of activated T cells in the germinal center of the tonsil. Other cells belonging to the activated T cell population is only stained by PD1. The B lymphocytes in the germinal center are negative for both the LAG-3 and the PD1 antibody, illustrating the specificity of both these antibodies: (Red arrow: strongly LAG-3 positive, DAB overshadows magenta PD1. Green arrow: weakly pos LAG-3 with both DAB membrane and DAB golgi and PD1 magenta stain visible). PD1 positive, LAG-3 negative T cells: (orange arrow).
binder,measurement,value
"rabbit anti-human LAG-3 antibody, clone 12H8 (antibody, V domains shown, also called LAG-3 clone 12H8; exemplary LAG-3 antibody) VH: QSVKESEGGLFKPTDTLTLTCTVSGIDLSSGILVWVRQAPGSGLEWIGGIDANGRAYYASWAKSRSTITRNTNENTVTLKMTSLTAADTATYFCAGGAWNIWGPGTLVTVSS VL: AQVLTQTPSPVSAAVGGTVTIKCQSSQSVYDSNTLAWFQQKPGQPPKLLMYSASTLAFGVPSRFSGSGSGTQFTLTISDLECADAATYYCLGSYDCSSVDCTAFGGGTEVVVK",binding result,binds
